Measured values published in paper PMC8804602 (FEBS Open Bio, 2022).

Biological target: the molecule itself
Experiment: SEC-MALS; 25 °C, Superdex 200 Increase 10/300 GL, ~2 mg/mL, 100 μL injected, 25 mM Tris-HCl pH 8.0, 150 mM NaCl

B1: periplasmic part of MreC (residues 36-367) from Escherichia coli (domain or fragment, E. coli, UniProt P16926 36-367, looked up)
chain: SQIRTYMDTAVSPFYFVSNAPRELLDGVSQTLASRDQLELENRALRQELLLKNSELLMLGQYKQENARLRELLGSPLRQDEQKMVTQVISTVNDPYSDQVVIDKGSVNGVYEGQPVISDKGVVGQVVAVAKLTSRVLLICDATHALPIQVLRNDIRVIAAGNGCTDDLQLEHLPANTDIRVGDVLVTSGLGGRFPEGYPVAVVSSVKLDTQRAYTVIQARPTAGLQRLRYLLLLWGADRNGANPMTPEEVHRVANERLMQMMPQVLPSPDAMGPKLPEPATGIAQPTPQQPATGNAATAPAAPTQPAANRSPQRATPPQSGAQPPARAPGGQ
notes: Cell shape-determining protein MreC, E. coli BL21(DE3) strain, residues 36-367, lacks the N-terminal transmembrane region; holds the coiled coil, two six-stranded beta-barrels and the pro-rich region; the cDNA came from strain BL21(DE3); pET21b usually adds a C-terminal His6 (surmised); About 37 kDa per chain as printed; also called truncated MreC; major periplasmic domain of MreC; source: E. …
  stoichiometry N: 2
